Results from PMC11551740.

Target: M.EcoGII (methyltransferase EcoGII) (Escherichia coli)
Test: SEC; 50-100 ug protein on Superdex 200 Increase 10/300 GL, 0.75 ml/min, 20 mM HEPES (pH 7.0 in the methods, pH 7.4 in the legend), 250 mM NaCl; molecular weight estimated from a calibration curve of LMW markers

- stoichiometry N: 2
Substance: M.EcoGII (methyltransferase EcoGII) (enzyme)
